Test results as given in paper PMC8600288.

Biological target: AlyA3, PL17 alginate lyase from Zobellia galactanivorans DsijT (recombinant, His-tagged, without signal peptide) (Zobellia galactanivorans DsijT)
Assay: SEC

stoichiometry N: 2
Substance: AlyA3, PL17 alginate lyase from Zobellia galactanivorans DsijT (recombinant, His-tagged, without signal peptide) (enzyme)
